Measured values from patent CN114989295A.

Target: 重组MERS-CoV-S蛋白 (MERS-CoV) (UniProt K9N5Q8)
Assay: indirect ELISA, hybridoma supernatant on coated MERS-S protein

Chain of UniProt K9N5Q8 (K9N5Q8 324-644 limits assumed): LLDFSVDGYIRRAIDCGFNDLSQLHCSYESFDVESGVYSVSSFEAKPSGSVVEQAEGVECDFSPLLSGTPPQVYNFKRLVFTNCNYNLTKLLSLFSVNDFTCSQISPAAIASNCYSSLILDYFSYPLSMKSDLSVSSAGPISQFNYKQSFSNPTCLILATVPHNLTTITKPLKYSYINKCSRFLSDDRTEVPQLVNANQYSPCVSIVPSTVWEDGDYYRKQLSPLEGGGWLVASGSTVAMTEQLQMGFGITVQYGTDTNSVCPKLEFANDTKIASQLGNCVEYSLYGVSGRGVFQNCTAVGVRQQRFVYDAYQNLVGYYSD

Row | Binder | 效价 (titer (1:dilution)) | 敏感性 [ng/mL]
1 | 抗MERS-CoV鼠单克隆抗体7G5 (antibody, V domains shown) VH: EVQGQVSGLKLVVEGASVLKSCTSTGFLSGMGLVMPGGSNHSWVQEVPEIVLEWSGDWSANYSQDGLITSKATASADTTDSTAYLQLSEFDSEDTAVSFSCASNWLMLYMASLNWGQGEDDTVQS VL: DISLTRSPSTLSATPQESVSLSCKQLISSYLMWTQWYQSKSHESLELTEKVELIYSNSHLHTGIPFSFSGDDSGTDFFLKVNVNSTEDFGEYFCSCQDQNTSERGDFGQATKLLEK | 256000 | 0.561
2 | 抗MERS-CoV鼠单克隆抗体6E4 (antibody, V domains shown) VH: EVDLSESLGGQVKVTGSLKLDEAASGSMHGGDVKEGASLWLWVRVTPEIELEWRDAQGVAFISAGESSTYRFTTSRDNARSDRYLQMSELRKLDTAFIYCGRYRVTLSTLQEYSWGQGDWVTTDA VL: DIQETQTRSVLSAALGSRVTISCSMDIANYVNEYQWYQSPKPDFDVKLSIYEVLIYRSVRLQSGVPSRFSKKGSLDDYSLTISCFEPEDVEIYCNDCQILGSELPEFGDFTKIEILR | 256000 | 2.31
